Source: article PMC3254782
Read-outs that look alike come from different tables or passages of the source.

How the values were obtained:
Assay in all cases: immunoprecipitation and Western blot
[1] = molecular target: amyloid-β (Aβ) in brain tissue of Tg2576 mice (human)
[2] = molecular target: amyloid-β (Aβ) secreted by 7PA2 cells
[3] = molecular target: amyloid-β (Aβ) secreted by mature Tg2576 primary cortical neurons (human)
[4] = molecular target: amyloid-β (Aβ) secreted by mature Tg2576 primary cortical neurons (human); remark: listed apart in the source

With “amyloid-β (Aβ) in brain tissue of Tg2576 mice (peptide)” the stoichiometry N [1] was 2.
Work on “amyloid-β (Aβ) secreted by 7PA2 cells (peptide)” yielded a stoichiometry N [2] of 2.
With “amyloid-β (Aβ) secreted by mature Tg2576 primary cortical neurons (peptide)” the stoichiometry N [3] was 2 and the stoichiometry N [4] was 3.
